Numbering of substitutions follows the chain as printed.
T1: alcalase (trade name "Alcalase 2.5L", Novozymes) (UniProt P00780)
T1 sequence (looked up): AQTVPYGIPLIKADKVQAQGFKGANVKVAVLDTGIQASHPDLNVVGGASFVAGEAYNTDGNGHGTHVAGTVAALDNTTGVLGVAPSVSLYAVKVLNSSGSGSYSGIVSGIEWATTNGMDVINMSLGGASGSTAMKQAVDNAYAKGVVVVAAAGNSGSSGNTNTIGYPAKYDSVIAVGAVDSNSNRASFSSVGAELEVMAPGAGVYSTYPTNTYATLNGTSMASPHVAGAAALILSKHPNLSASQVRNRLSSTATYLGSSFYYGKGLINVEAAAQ

B1: proteinaceous protease inhibitor of SEQ ID NO:41 (protein)
chain: MSSVEKKPEGVNTGAGDRHNLKTEWPELVGKSVEEAKKVILQDKSEAQIIVLPVGTIVTMEYRIDRVRLFVDKLDNIAQVPRVG
B2: proteinaceous protease inhibitor of SEQ ID NO:40 (protein)
chain: TECGGGGGAKTSWPEVVGLSVEEAKKVILKDKPDADIVVLPVGSVVTADYRPNRVRIFVDIVAQTPHVG
B3: proteinaceous protease inhibitor (BC) of SEQ ID NO:1, wheat-derived subtilisin/chymotrypsin inhibitor (protein)
chain: TDTGDHHNQKTEWPELVGKSVEEAKKVILQDKSEAQIVVLPVGTIVTMEYRIDRVRLFVDSLDKIAQVPRVG
B4: proteinaceous protease inhibitor of SEQ ID NO:5 (protein)
chain: B3 chain with V38L
B5: proteinaceous protease inhibitor of SEQ ID NO:6 (protein)
chain: B3 chain with V38I

What follows are binders tested against T1, alcalase (trade name "Alcalase 2.5L", Novozymes) (assay: cell-based or functional assay).

Row | Protease activity upon dilution (%) immediately after preparation [%] | Remaining activity (%) immediately after preparation [%] | Binder
1 | 8 | 0 | B1
2 | 100 | 53 | B2
3 | 10 | 0 | B3
4 | 100 | 11 | B4
5 | 10 | 0 | B5

Source: patent publication US20140357543A1
